In patent US20070048315A1 (SCHERING, published 2007):
Values joined by “and” are separate entries in the source; they are usually repeats but may differ in a detail not shown here. Equal entries are not always repeated.

T1: "Non-linked" human IL-23 (human p40 coexpressed in 293T cells with human p19:FLAG-tag peptide) (human, UniProt P29460 23-328)
T1 sequence 1: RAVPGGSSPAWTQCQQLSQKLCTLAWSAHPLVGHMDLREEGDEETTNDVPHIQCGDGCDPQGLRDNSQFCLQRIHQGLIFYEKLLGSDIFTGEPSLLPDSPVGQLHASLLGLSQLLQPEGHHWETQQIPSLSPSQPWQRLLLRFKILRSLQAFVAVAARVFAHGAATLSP
T1 sequence 2: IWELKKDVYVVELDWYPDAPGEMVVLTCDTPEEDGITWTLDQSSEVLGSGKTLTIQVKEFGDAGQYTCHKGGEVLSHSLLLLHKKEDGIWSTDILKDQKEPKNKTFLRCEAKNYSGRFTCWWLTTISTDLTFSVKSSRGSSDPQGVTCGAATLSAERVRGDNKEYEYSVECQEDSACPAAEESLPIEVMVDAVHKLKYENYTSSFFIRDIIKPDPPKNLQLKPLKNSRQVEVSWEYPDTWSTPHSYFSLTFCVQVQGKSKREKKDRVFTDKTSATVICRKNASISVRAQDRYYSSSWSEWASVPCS

T2: non-tagged, non-linked native human IL-23p19/p40 coexpressed in SF9 cells (eBioscience CAT No. 34-8239) (human, UniProt P29460 23-328)
T2 sequence 1: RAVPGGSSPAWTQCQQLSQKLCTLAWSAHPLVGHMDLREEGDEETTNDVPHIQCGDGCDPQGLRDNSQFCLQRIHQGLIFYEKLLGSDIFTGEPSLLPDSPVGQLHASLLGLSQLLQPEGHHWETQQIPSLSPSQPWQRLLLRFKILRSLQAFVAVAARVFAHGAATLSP
T2 sequence 2: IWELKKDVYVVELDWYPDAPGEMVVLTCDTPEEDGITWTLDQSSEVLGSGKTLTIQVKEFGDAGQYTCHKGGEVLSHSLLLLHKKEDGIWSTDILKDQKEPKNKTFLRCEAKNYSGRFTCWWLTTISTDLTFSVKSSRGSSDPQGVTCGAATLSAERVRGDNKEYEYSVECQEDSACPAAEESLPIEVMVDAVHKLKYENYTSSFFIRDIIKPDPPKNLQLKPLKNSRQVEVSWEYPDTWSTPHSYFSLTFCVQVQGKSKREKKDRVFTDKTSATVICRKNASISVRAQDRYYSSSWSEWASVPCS


What was measured:
Experiment in all cases: cell-based or functional assay
[1] = target: "Elastikine" human IL-23 (single chain FLAG-tag peptide:GLU-tag peptide:human p40:elasti-linker:human p19, … (human, UniProt P29460 23-328))
[2] = target: T1, "Non-linked" human IL-23 (human p40 …)
[3] = target: T2, non-tagged, non-linked native human …
[4] = target: "Elastikine" human IL-23 (single chain FLAG-tag peptide:GLU-tag peptide:human p40:elasti-linker:human p19, … (human, UniProt P29460 23-328)); remark: listed apart in the source

| IC50 for blocking of Ba/F3 cell proliferation [1] | IC50 for blocking of Ba/F3 cell proliferation [2] [nM] | IC50 for blocking of Ba/F3 cell proliferation [3] | IC50 for blocking of Ba/F3 cell proliferation [4] [nM] | Binder |
| --- | --- | --- | --- | --- |
| 22 nM and 18 nM | 3000 |  |  | mouse anti-human IL-23p19 antibody 7G10 (antibody, V domains shown) VH: EVQLQQSGPELVKPGASVKMSCKASGYTFTSNVMHWVKQKPGQGLEWIGYINPYNDGTKYNEKFKGKATLTSDKSSSTAYMELSSLTSEDSAVYYCARNWDVAYWGQGTLVTVSA VL: DIVMTQSPATLSVTPGDRVSLSCRASQSISDYLHWYRQKSHESPRLLIKYASQSISGIPSRFSGSGSGSDFTLSINSVEPEDVGVYYCQNGHSFPFTFGSGTKLEIKR |
| 11 nM and 9 nM | 1500 | 1300 nM and 500 nM |  | mouse anti-human IL-23p19 antibody 6H12 (antibody, V domains shown) VH: EVHLQQSGPELVKPGASVKMSCKASGYTFNRYLIHWVKQKPGQGLEWIGYINPNNDGTNYNEKFKGKATLTSDKSSSTAYMELSSLTSEDSAVYYCAANWDQAYWGQGTLVTVSA VL: DIVMTQSPATLSVTPGDRVSLSCRASQSISDYLHWYQQKSHESPRLLIKYTSQSISGIPSRFSGSGSGSDFTLSINSVEPEDVGVYYCQNGHSFPFTFGSGTKLEIKR |
| 4 nM and 3 nM | 193 | 57 nM |  | mouse anti-human IL-23p19 antibody 33B12 (antibody, V domains shown) VH: QVQLQQSGAELARPGASVKLSCKASGYTFTSYSLKWVKQRTGQGLEWIGEIHPRSGNTHYNEKFKGKATLTADKSSSTAYMDLRSLTSEDSAVYFCATNWDLGYWGQGTTITVSS VL: DIVLTQSPATLSVTPGDRVSLSCRASQSISDYLHWFQQRSHESPRLLIKYASQSISGIPSRFSGSGSGSDFTLSINSVEPEDVGVYYCQNGHSFPFTFGSGTKLEIKR |
| 7 nM and 5 nM | 113 | 31 nM |  | mouse anti-human IL-23p19 antibody 13B5 (antibody, V domains shown) VH: EVQLQQSGPELVKPGASVKMSCKASGYTFTRYLMHWVKQKPGQGLEWIGYINPYNDGTNYNEKFKGKATLTSDKSSSTAYMELSSLTSEDSAVYYCARNWDVGGYWGQGTTLTVSS VL: DIVMTQSPATLSVTPGDRVSLSCRASQSISDYLHWYQQKSHESPRLLIKYASQSISGIPSRFSGSGSGSDFTLSINSVEPEDVGVYYCQNGHSFPFTFGSGTKLEIKR |
|  | 10000 | 7800 nM | 29 | humanized anti-human IL-23p19 antibody hum7G10 (antibody, human IgG1, kappa, V domains shown) VH: QVQLVQSGAEVKKPGASVKVSCKASGYTFTSNVMHWVRQAPGQGLEWMGYINPYNDGTKYNEKFKGRVTMTTDTSTSTAYMELRSLRSDDTAVYYCARNWDVAYWGQGTLVTVSS VL: DIQMTQSPSSLSASVGDRVTITCRASQSISDYLHWYQQKPGKAPKLLIYYASQSISGVPSRFSGSGSGTDFTLTISSLQPEDFATYYCQNGHSFPFTFGQGTKVEIKR |
|  | 4000 | 3200 nM | 27 | humanized anti-human IL-23p19 antibody hum6H12 (antibody, human IgG1, kappa, V domains shown) VH: QVQLVQSGAEVKKPGASVKVSCKASGYTFNRYLIHWVRQAPGQGLEWMGYINPNNAGTNYNEKFKGRVTMTTDTSTSTAYMELRSLRSDDTAVYYCARNWDQAYWGQGTLVTVSS VL: DIQMTQSPSSLSASVGDRVTITCRASQSISDYLHWYQQKPGKAPKLLIYYTSQSISGVPSRFSGSGSGTDFTLTISSLQPEDFATYYCQNGHSFPFTFGQGTKVEIKR |
| 9 nM and 5 nM | 67 | 11 nM |  | mouse anti-human IL-23p19 antibody 39G2 (antibody, V domains shown) VH: QVQLQQPGAELVRPGASVKLSCKASGYSFTSSWMNWVKQRPGQGLEWIGMIHPSDSETRTNQKFKDKATLTVDKSSSTAYMQLSSPTSEDSAVYYCARGMITAPTVYWGQGTLVTVSA VL: DIVLTQSPASLAVSLGQRATISCRASKSVSTSAYSYFHWYQQKPGQPPKLLIYLASNLESGVPARFSGSGSGTDFTLNIHPVEEEDAATYYCQHSRELPWTFGGGTKLEITP |
| 15 nM and 5 nM | 73 | 12 nM |  | mouse anti-human IL-23p19 antibody 35F12 (antibody, V domains shown) VH: QVQLQQPGAELMRPGASVRLSCKASGYSFTTSWMNWVKQRPGQGLEWIGMIHPSDSETRLNQNFKDKATLTVDRSSSTAYMQLNSPTSEDSAVYYCARGMITAPSVYWGQGTLVTVSA VL: DIVLTQSPASLAVSLGQRATISCRASKSVSTSAYSYFHWYQQKPGQPPKLLIYLASNLESGVPARFSGSGSGTDFTLNIHPVEEGDAATYYCQHSRELPWTFGGGTKLEITR |
| 3 nM | 37 | 2 nM |  | mouse anti-human IL-23p19 antibody 3D7 (antibody, V domains shown) VH: QVQLQQSGPELVKPGASVKISCKASGYSFTSYYIHWVKQRPGQGLEWIGWIFPGSGNTKYNEKFKGKATLTADTSSTTAYMQLSSLTSEASAVYFCAREGLHYFGLYAMDYWGHGTSVTVSS VL: DIQMTQTTSSLSASLGDRVTISCSASQGISNYLNWFQQKPDGTVKLLIYYTSSLHSGVPSRFSGSGSGTDYSLTISNLEPEDIATYYCQQYSKLPYTFGGGTKLEIKR |
